# Experimental data reported in patent publication US9944717.
# T1: glycosylated recombinant human complement C2 with a N-terminal his-tag
# T1 chain: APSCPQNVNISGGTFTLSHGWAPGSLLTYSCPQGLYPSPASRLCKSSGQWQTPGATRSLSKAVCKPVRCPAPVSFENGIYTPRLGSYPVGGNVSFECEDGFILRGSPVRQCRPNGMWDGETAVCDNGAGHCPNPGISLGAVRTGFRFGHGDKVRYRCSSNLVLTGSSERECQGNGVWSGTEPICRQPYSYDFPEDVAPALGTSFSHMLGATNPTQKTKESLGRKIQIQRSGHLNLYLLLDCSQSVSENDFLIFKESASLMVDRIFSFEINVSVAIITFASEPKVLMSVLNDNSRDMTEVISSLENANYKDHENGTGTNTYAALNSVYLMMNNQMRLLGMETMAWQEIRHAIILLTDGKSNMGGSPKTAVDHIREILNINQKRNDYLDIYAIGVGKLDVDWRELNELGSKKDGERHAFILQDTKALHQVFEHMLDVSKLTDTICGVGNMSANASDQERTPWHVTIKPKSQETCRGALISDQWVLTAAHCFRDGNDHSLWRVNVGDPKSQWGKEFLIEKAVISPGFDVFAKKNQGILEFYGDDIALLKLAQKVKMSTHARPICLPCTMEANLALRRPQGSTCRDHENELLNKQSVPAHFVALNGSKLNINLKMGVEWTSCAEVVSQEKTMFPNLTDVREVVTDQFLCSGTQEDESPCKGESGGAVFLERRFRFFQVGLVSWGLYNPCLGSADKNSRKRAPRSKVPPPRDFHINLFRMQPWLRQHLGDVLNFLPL
# Target: T1, glycosylated recombinant human …
protein,measurement,value
plasma-derived activated human C1s (Calbiochem) (protein) EPTMYGEILSPNYPQAYPSEVEKSWDIEVPEGYGIHLYFTHLDIELSENCAYDSVQIISGDTEEGRLCGQRSSNNPHSPIVEEFQVPYNKLQVIFKSDFSNEERFTGFAAYYVATDINECTDFVDVPCSHFCNNFIGGYFCSCPPEYFLHDDMKNCGVNCSGDVFTALIGEIASPNYPKPYPENSRCEYQIRLEKGFQVVVTLRREDFDVEAADSAGNCLDSLVFVAGDRQFGPYCGHGFPGPLNIETKSNALDIIFQTDLTGQKKGWKLRYHGDPMPCPKEDTPNSVWEPAKAKYVFRDVVQITCLDGFEVVEGRVGATSFYSTCQSNGKWSNSKLKCQPVDCGIPESIENGKVEDPESTLFGSVIRYTCEEPYYYMENGGGGEYHCAGNGSWVNEVLGPELPKCVPVCGVPREPFEEKQRIIGGSDADIKNFPWQVFFDNPWAGGALINEYWVLTAAHVVEGNREPTMYVGSTSVQTSRLAKSKMLTPEHVFIHPGWKLLEVPEGRTNFDNDIALVRLKDPVKMGPTVSPICLPGTSSDYNLMDGDLGLISGWGRTEKRDRAVRLKAARLPVAPLRKCKEVKVEKPTADAEAYVFTPNMICAGGEKGMDSCKGDSGGAFAVQDPNDKTKFYAAGLVSWGPQCGTYGLYTRVKNYVDWIMKTMQENSTPRED,"cleavage of recombinant C2 by C1s (SDS-PAGE, C1s-to-C2 ratio of 1:25)",C1s cleaved recombinant C2 into subcomponents C2a (≈70 kDa) and C2b (≈30 kDa)
